Target: the molecule itself
Assay: SEC

B1: C-terminal domain of mtFDH (ALDH1L2), residues 413-923 (domain or fragment, human, UniProt Q3SY69 413-923, looked up)
chain: VRKLRGEDQEVELVVDYISKEVNEIMVKMPYQCFINGQFTDADDGKTYDTINPTDGSTICKVSYASLADVDKAVAAAKDAFENGEWGRMNARERGRLMYRLADLLEENQEELATIEALDSGAVYTLALKTHIGMSVQTFRYFAGWCDKIQGSTIPINQARPNRNLTFTKKEPLGVCAIIIPWNYPLMMLAWKSAACLAAGNTLVLKPAQVTPLTALKFAELSVKAGFPKGVINIIPGSGGIAGQRLSEHPDIRKLGFTGSTPIGKQIMKSCAVSNLKKVSLELGGKSPLIIFNDCELDKAVRMGMGAVFFNKGENCIAAGRLFVEESIHDEFVTRVVEEIKKMKIGDPLDRSTDHGPQNHKAHLEKLLQYCETGVKEGATLVYGGRQVQRPGFFMEPTVFTDVEDYMYLAKEESFGPIMVISKFQNGDIDGVLQRANSTEYGLASGVFTRDINKAMYVSEKLEAGTVFINTYNKTDVAAPFGGVKQSGFGKDLGEEALNEYLKTKTVTLEY
stoichiometry N: 4

Reference: PMC3103650 (Chemico-biological interactions, 2011)
